Measurements published in paper PMC2928812.

Tested on: FMDV 3D polymerase wild type (Foot-and-mouth disease virus C-S8c1?)
Test: EMSA

heteropolymeric RNA template-primer of the RNA binding assay
binding signal (% RNA retarded): 62
